Drawing on paper doi:10.1101/2025.11.17.688911 (2025), this text covers Kd for one molecule.

In the assay the target is surface-immobilized biotinylated microtubules (pig, UniProt Q2XVP4 1-451; Q767L7 1-444, biotin (site not stated) | biotin (site not stated)).
Chain of surface-immobilized biotinylated microtubules (Q2XVP4 whole entry, chain 1 of 2): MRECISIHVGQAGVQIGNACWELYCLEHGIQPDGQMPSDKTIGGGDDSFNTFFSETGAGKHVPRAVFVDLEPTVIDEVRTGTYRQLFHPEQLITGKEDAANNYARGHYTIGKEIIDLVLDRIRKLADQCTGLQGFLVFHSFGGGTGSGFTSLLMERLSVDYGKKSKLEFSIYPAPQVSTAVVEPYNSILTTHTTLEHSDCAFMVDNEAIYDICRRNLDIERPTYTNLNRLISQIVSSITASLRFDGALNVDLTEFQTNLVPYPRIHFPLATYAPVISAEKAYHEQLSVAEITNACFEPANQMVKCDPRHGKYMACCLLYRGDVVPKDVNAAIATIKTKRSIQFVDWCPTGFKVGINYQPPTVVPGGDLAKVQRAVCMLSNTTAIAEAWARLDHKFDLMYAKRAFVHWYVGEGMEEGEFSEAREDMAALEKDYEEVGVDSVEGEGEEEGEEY
Chain of surface-immobilized biotinylated microtubules (Q767L7 other isoform, or with tags, fused parts or gaps, chain 2 of 2): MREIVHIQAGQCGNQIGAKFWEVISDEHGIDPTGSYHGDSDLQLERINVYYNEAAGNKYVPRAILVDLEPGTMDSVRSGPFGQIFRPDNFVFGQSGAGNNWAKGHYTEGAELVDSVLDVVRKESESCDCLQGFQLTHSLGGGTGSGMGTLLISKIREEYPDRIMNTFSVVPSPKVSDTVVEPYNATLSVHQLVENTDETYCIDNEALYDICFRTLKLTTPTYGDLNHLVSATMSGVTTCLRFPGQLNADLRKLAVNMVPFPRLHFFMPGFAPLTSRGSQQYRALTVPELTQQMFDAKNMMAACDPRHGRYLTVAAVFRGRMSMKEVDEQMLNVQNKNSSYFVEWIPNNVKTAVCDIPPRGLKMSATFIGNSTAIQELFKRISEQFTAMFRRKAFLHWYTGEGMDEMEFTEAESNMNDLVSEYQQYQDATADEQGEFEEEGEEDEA

B1: MAP9-MTBD (Human MAP9 (302–647)::GFP::strepII) (domain or fragment)
chain: SKESQVTADDLEEEKAKAELIMDDDRTVDPLLSKSQSILISTSATASSKKTIEDRNIKNKKSTNNRASSASARLMTSEFLKKSSSKRRTPSTTTSSHYLGTLKVLDQKPSQKQSIEPDRADNIRAAVYQEWLEKKNVYLHEMHRIKRIESENLRIQNEQKKAAKREEALASFEAWKAMKEKEAKKIAAKKRLEEKNKKKTEEENAARKGEALQAFEKWKEKKMEYLKEKNRKEREYERAKKQKEEETVAEKKKDNLTAVEKWNEKKEAFFKQKEKEKINEKRKEELKRAEKKDKDKQAINEYEKWLENKEKQERIERKQKKRHSFLESEALPPWSPPSRTVFAKVF
The term Kd denotes a measure of binding affinity in units of concentration. Read a high Kd as a looser complex. In the case of B1, binding was characterised by a dissociation constant (Kd) of 0.043 µM.
